From patent US20030092037A1, “Elk1 phosphorylation related gene” (priority 2001, published 2003)

B1: 110 (protein, listed as Homo sapiens)
chain: MERPLCSHLCSCLAMLALLSPLSLAQYDSWPHYPEYFQQPAPEYHQPQAPANVAKIQLRLAGQKRKHSEGRVEVYYDGQWGTVCDDDFSIHAAHVVCRELGYVEAKSWTASSSYGKGEGPIWLDNLHCTGNEATLAACTSNGWGVTDCKHTEDVGVVCSDKRIPGFKFDNSLINQIENLNIQVEDIRIRAILSTYRKRTPVMEGYVEVKEGKTWKQICDKHWTAKNSRVVCGMFGFPGERTYNTKVYKMFASRRKQRYWPFSMDCTGTEAHISSCKLGPQVSLDPMKNVTCENGLPAVVSCVPGQVFSPDGPSRFRKAYKPEQPLVRLRGGAYIGEGRVEVLKNGEWGTVCDDKWDLVSASVVCRELGFGSAKEAVTGSRLGQGIGPIHLNEIQCTGNEKSIIDCKFNAESQGCNHEEDAGVRCNTPAMGLQKKLRLNGGRNPYEGRVEVLVERNGSLVWGMVCGQNWGIVEAMVVCRQLGLGFASNAFQETWYWHGDVNSNKVVMSGVKCSGTELSLAHCRHDGEDVACPQGGVQYGAGVACSETAPDLVLNAEMVQQTTYLEDRPMFMLQCAMEENCLSASAAQTDPTTGYRRLLRFSSQIHNNGQSDFRPKNGRHAWIWHDCHRHYHSMEVFTHYDLLNLNGTKVAEGHKASFCLEDTECEGDIQKNYECANFGDQGITMGCWDMYRHDIDCQWVDITDVPPGDYLFQVVINPNFEVAESDYSNNIMKCRSRYDGHRIWMYNCHIGGSFSEETEKKFEHFSGLLNNQLSPQ
B2: 112 (protein, listed as Homo sapiens)
chain: METTFGPAFSAVTTITKADGTSTYKQHCRTPSSSSTLAYSPRDEEDSMPPISTPRRSDSAISVRSLHSESSMSLRSTFSLPEEEEEPEPLVFAEQPSVKLCCQLCCSVFKDPVITTCGHTFCRRCALKSEKCPVDNVKLTVVVNNIAVAEQIGELFIHCRHGCRVAGSGKPPIFEVDPRGCPFTIKLSARKDHEGSCDYRPVRCPNNPSCPPLLRMNLEAHLKECEHIKCPHSKYGCTFIGNQDTYETHLETCRFEGLKEFLQQTDDRFHEMHVALAQKDQEIAFLRSMLGKLSEKIDQLEKSLELKFDVLDENQSKLSEDLMEFRRDASMLNDELSHINARLNMGILGSYDPQQIFKCKGTFVGHQGPVWCLCVYSMGDLLFSGSSDKTIKVWDTCTTYKCQKTLEGHDGIVLALCIQGCKLYSGSADCTIIVWDIQNLQKVNTIRAHDNPVCTLVSSHNVLFSGSLKAIKVWDIVGTELKLKKELTGLNHWVRALVAAQSYLYSGSYQTIKIWDIRTLDCIHVLQTSGGSVYSIAVTNHHIVCGTYENLIHVWDIESKEQVRTLTGHVGTVYALAVISTPDQTKVFSASYDRSLRVWSMDNMICTQTLLRHQGSVTALAVSRGRLFSGAVDSTVKVWTC
B3: 116 (protein, listed as Mus musculus)
chain: MSSAKSARYDRFSGGPANLPSSDSSGTRMETTFGPTFSTVTTITKAADGTGTYKQHRRTPSSSSTLAYSPRDEEDGMEPLVFAEQPSVKLCCQLCCSVFKDPVITTCGHTFCRRCALKSEKCPVDNAKLTVVVNNIAVAEQIGELFIHCRHGCHAAGTGKPGVFEVDPRGCPFTIKLSARKDHESSCDYRPVRCPNNPSCPPLLKMNLEAHLKECEHIKCPHSKYGCTFIGNQDTYETHLETCRFEGLKEFLQQSDDRFHEMHVALAQKDQEIAFLRSMLGKLSEKINQLEKSLELKFDVLDENQSKLSEDLMEFRRDASMLNDELSHINARLNMGILGSYDPQQIFKCKGTFVGHQGPVWCLCVYSMGDLLFSGSSDKTIKVWDTCTTYKCQKTLEGHDGIVLALCIQGCKLYSGSADCTIIVWDIQNLQKVNTIRAHDNPVCTLVSSHNMLFSGSLKAIKVWDIVGTELKLKKELTGLNHWVRALVAAQSYLYSGSYQTIKIWDIRTLDCIHVLQTSGGSVYSIAVTNHHIVCGTYENLIHVWDIESKEQVRTLTGHVGTVYALAVISTPDQTKVFSASYDRSLRVWSMDNMICTQTLLRHQGSVTALAVSRGRLFSGAVDSTVKVWTC
B4: 44 (protein, listed as Homo sapiens)
chain: MEDEEVAESWEEAADSGEIDRRLEKKLKITQKESRKSKSPPKVPIVIQDDSLPAGPPPQIRILKRPTSNGVVSSPNSTSRPTLPVKSLAQREAEYAEARKRILGSASPEEEQEKPILDRPTRISQPEDSRQPNNVIRQPLGPDGSQGFKQRR
B5: 50 (protein, listed as Homo sapiens)
chain: MAKERRRAVLELLQRPGNARCADCGAPDPDWASYTLGVFICLSCSGIHRNIPQVSKVKSVRLDAWEEAQVEFMASHGNDAARARFESKVPSFYYRPTPSDCQLLREQWIRAKYERQEFIYPEKQEPYSAGYREGFLWKRGRDNGQFLSRKFVLTEREGALKYFNRNDAKEPKAVMKIEHLNATFQPAKIGHPHGLQVTYLKDNSTRNIFIYHEDGKEIVDWFNALRAARFHYLQVAFPGASDADLVPKLSRNYLKEGYMEKTGPKQTEGFRKRWFTMDDRRLMYFKDPLDAFARGEVFIGSKESGYTVLHGFPPSTQGHHWPHGITIVTPDRKFLFACETESDQREWVAAFQKAVDRPMLPQEYAVEAHFKHKP
B6: 52 (protein, listed as Homo sapiens)
chain: MAASRLELNLVRLLSRCEAMAAEKRDPDEWRLEKYVGALEDMLQALKVHASKPASEVINEYSWKVDFLKGMLQAEKLTSSSEKALANQFLAPGRVPTTARERVPATKTVHLQSRARYTSEMRSELLGTDSAEPEMDVRKRTGVAGSQPVSEKQSAAELDLVLQRHQNLQEKLAEEMLGLARSLKTNTLAAQSVIKKDNQTLSHSLKMADQNLEKLKTESERLEQHTQKSVNWLLWAMLIIVCFIFISMILFIRIMPKLK
B7: 60 (protein, listed as Homo sapiens)
chain: MLGSGFKAERLRVNLRLVINRLKLLEKKKTELAQKARKEIADYLAAGKDERARIRVEHIIREDYLVEAMEILELYCDLLLARFGLIQSMKELDSGLAESVSTLIWAAPRLQSEVAELKIVADQLCAKYSKEYGKLCRTNQIGTVNDRLMHKLSVEAPPKILVERYLIEIAKNYNVPYEPDSVVMVPPQECERMGEALWEDHQRWLDSGREHVVKHPSLVLRFQT
B8: 68 (protein, listed as Homo sapiens)
chain: MLKEEQEVAMLGVPHNPAPPMSTVIHIRSETSVPDHVVWSLFNTLSMNTCCLGFIAFAYSVKSRDRKMVGDVTGAQAYASTAKCLNIWALILGIFMTILLIIIPVLVVQAQR
B9: 4 (protein, listed as Homo sapiens)
chain: MSHEKSFLVSGDNYPPPNPGYPGGPQPPMPPYAQPPYPGAPYPQPPFQPSPYGQPGYPHGPSPYPQGGYPQGPYPQGGYPQGPYPQEGYPQGPYPQGGYPQGPYPQSPFPPNPYGQPQVFPGQDPDSPQHGNYQEEGPPSYYDNQDFPATNWDDKSIRQAFIRKVFLVLTLQLSVTLSTVSVFTFVAEVKGFVRENVWTYYVSYAVFFISLIVLSCCGDFRRKHPWNLVALSVLTASLSYMVGMIASFYNTEAVIMAVGITTAVCFTVVIFSMQTRYDFTSCMGVLLVSMVVLFIFAILCIFIRNRILEIVYASLGALLFTCFLAVDTQLLLGNKQLSLSPEEYVFAALNLYTDIINIFLYILTIIGRAKE

Each molecule was assayed on MAP kinase cascade activation (assay: Reporter activity reflecting MAP kinase cascade activation, corrected using an internal control (Elk1-GAL4 luciferase reporter in 293-EBNA cells)). Conditions: 12.5 ng/well expression plasmid; 293-EBNA cells; 24 hours.
Assay type: cell-based, human
Method: (in the presence of 5% CO2). […] The method used for introduction was in accordance with the attached protocol. After culturing for 24 hours at 37° C., reporter activity (firefly luciferase acitivity), which reflects MAP kinase cascade activation, and reporter activity being the internal control (sea pansy luciferase) were measured using Picagene Dual (purchased from Toyo Ink Manufacturing) in accordance with the manufacturer's instructions.
Luciferase activity was measured with Perkin Elmer's Wallac ARVOTMST 1420 MULTILABEL COUNTER.
Reporter activity where an expression plasmid comprising the above gene was introduced, which reflects MAP kinase cascade activation corrected with internal control reporter activity, is shown in Table 1, which is expressed as a factor of the same reporter activity where a null vector was introduced (S/B value).

Row | Molecule | Reporter activity corrected with internal control, as a factor of null vector (S/B value)
1 | B1 | 2.3
2 | B2 | 7.6
3 | B3 | 11.9

Same assay, conditions: 25 ng/well expression plasmid; 293-EBNA cells; 24 hours

Row | Molecule | Reporter activity corrected with internal control, as a factor of null vector (S/B value)
4 | B4 | 9.1
5 | B5 | 2.3
6 | B6 | 2.3
7 | B7 | 2.0
8 | B8 | 2.3
9 | B1 | 3.4
10 | B2 | 2.2
11 | B3 | 17.3
12 | B9 | 2.1

Same assay, conditions: 50 ng/well expression plasmid; 293-EBNA cells; 24 hours

Row | Molecule | Reporter activity corrected with internal control, as a factor of null vector (S/B value)
13 | B4 | 55.4
14 | B5 | 4.3
15 | B6 | 3.6
16 | B7 | 2.6
17 | B8 | 4.0
18 | B1 | 4.7
19 | B2 | 3.1
20 | B3 | 19.9
21 | B9 | 4.1

Same assay, conditions: 100 ng/well expression plasmid; 293-EBNA cells; 24 hours

Row | Molecule | Reporter activity corrected with internal control, as a factor of null vector (S/B value)
22 | B4 | 64.5
23 | B5 | 3.8
24 | B6 | 5.4
25 | B7 | 4.2
26 | B8 | 7.3
27 | B9 | 4.5

Same assay, conditions: plasmid 12.5 ng, 25 ng, 50 ng and 100 ng

Row | Molecule | Dependence of corrected reporter activity on amount of expression plasmid
28 | B4 | increases that were dependent on the amount of expression plasmid
29 | B5 | increases that were dependent on the amount of expression plasmid
30 | B6 | increases that were dependent on the amount of expression plasmid
31 | B7 | increases that were dependent on the amount of expression plasmid
32 | B8 | increases that were dependent on the amount of expression plasmid
33 | B1 | increases that were dependent on the amount of expression plasmid
34 | B2 | increases that were dependent on the amount of expression plasmid
35 | B3 | increases that were dependent on the amount of expression plasmid
36 | B9 | increases that were dependent on the amount of expression plasmid
